Experimental data published in paper PMC6504561.
pKd: −log10 of the molar value.

Columns and labels:
[1] = molecular target: FITC-labelled ARHGEF2 peptide 142-157 phosphorylated on Ser151 (not stated (human or mouse cDNA cloned)); test: MST
[2] = molecular target: FITC-labelled ARHGEF2 peptide 876-891 phosphorylated on Ser885 (not stated (human or mouse cDNA cloned)); test: MST
DYNLT1 (Mus musculus) = DYNLT1 (Mus musculus) (UniProt P51807); test: NMR; conditions: cited from earlier work
Chain of DYNLT1 (Mus musculus) (P51807 whole entry): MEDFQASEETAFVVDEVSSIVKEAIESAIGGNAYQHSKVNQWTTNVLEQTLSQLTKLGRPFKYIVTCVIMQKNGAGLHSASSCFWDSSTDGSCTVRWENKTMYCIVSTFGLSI

Chain of ARHGEF2 peptide 133-161 (Q60875 133-161): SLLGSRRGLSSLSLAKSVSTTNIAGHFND

Substance: GST-14-3-3 (from UniProt P63101 1-245) (natural protein)
- pKd [1]: 4.94
- pKd [2]: 5.64

Substance: ARHGEF2 peptide 133-161 (from UniProt Q60875)
- pKd (DYNLT1 (Mus musculus)): 4.10
